The results in this text go back to patent US20130023483A1.

Square brackets hold non-standard residues; d marks the D form. Oic = O=C(O)[C@@H]1C[C@@H]2CCCC[C@@H]2N1; 1Nal = N[C@@H](Cc1cccc2ccccc12)C(=O)O; 2Nal = N[C@@H](Cc1ccc2ccccc2c1)C(=O)O; d1Nal = N[C@H](Cc1cccc2ccccc12)C(=O)O; Tic = O=C(O)[C@@H]1Cc2ccccc2CN1; dTic = O=C(O)[C@H]1Cc2ccccc2CN1; dOrn = NCCC[C@@H](N)C(=O)O; Orn = NCCC[C@H](N)C(=O)O; Dab = NCC[C@H](N)C(=O)O; Abu = CC[C@H](N)C(=O)O

Sequence of chemokine receptor CXCR7 (RDC1) (P25106 whole entry): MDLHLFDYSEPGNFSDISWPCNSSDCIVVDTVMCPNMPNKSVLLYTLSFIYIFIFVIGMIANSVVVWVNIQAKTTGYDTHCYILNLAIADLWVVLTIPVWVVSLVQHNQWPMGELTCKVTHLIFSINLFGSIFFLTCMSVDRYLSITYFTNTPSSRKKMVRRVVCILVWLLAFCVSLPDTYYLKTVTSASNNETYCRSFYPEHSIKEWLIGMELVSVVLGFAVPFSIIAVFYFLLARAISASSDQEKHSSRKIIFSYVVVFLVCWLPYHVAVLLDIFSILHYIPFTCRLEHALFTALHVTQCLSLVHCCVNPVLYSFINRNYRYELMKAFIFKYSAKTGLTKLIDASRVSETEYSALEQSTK

This assay addresses chemokine receptor CXCR7 (RDC1) (UniProt P25106). Kind of assay: cell-based or functional assay.
For the substance “cyclo(-1Nal-^DArg-Ile-Arg-^DPro-Azt-) (peptide)”, the β-Arrestin EC50 came out at 41.2 nM. The value for “cyclo(-1Nal-^DArg-Trp-Arg-^DPro-Azt-) (peptide)” was 146 nM; that for “cyclo(-1Nal-^DHis-Ile-Arg-^DPro-Azt-) (peptide)” was 85.7 nM; that for “cyclo(-1Nal-^DHis-Tyr-Arg-^DPro-Azt-) (peptide)” was 44.4 nM. The value for “cyclo(-His(Me)-^DPhe-Trp-Arg-^DPro-Tic-) (peptide)” was 32.5 nM; that for “cyclo(-Trp-^DArg-Ile-Arg-^DPro-Azt-) (peptide)” was 47.7 nM; that for “cyclo(-Trp-^DArg-Trp-Arg-^DPro-Azt-) (peptide)” was 170 nM. In turn, “cyclo(-Trp-^DArg-Trp-Ile-^DPro-Azt-) (peptide)” returned a β-Arrestin EC50 of 208 nM. In turn, “cyclo(-Trp-^DHis-Ile-Arg-^DPro-Azt-) (peptide)” showed a β-Arrestin EC50 of 344 nM. The value for “cyclo(-Trp-^DHis-Trp-Arg-^DPro-Azt-) (peptide)” was 342 nM; that for “cyclo(-Trp-^DPhe-Trp-Arg-^DPip-Pro-) (peptide)” was 78.7 nM. The result for “cyclo(-Trp-^DPhe-Trp-Arg-^DPro-(4S)-Hyp(Bn)-) (peptide)” reads 1.7 nM; that for “cyclo(-Trp-^DPhe-Trp-Arg-^DPro-Tiq-) (peptide)”, 0.4 nM; that for “cyclo(-Trp-^DThr-Tyr-Arg-^DPro-Azt-) (peptide)”, 148 nM.

cyclo(A[dF]WR[dP][Tic]) gave a β-Arrestin EC50 of 163 nM. As for cyclo(F[dF]WR[dP][Tic]), the β-Arrestin EC50 amounted to 22.5 nM.

Regarding cyclo(H[d1Nal]HW[dP][Tic]), the β-Arrestin EC50 turned out to be 269 nM. The result for cyclo(H[dF]WR[dP][Tic]) reads 32.1 nM. The value for cyclo(H[dW]HR[dP][Tic]) was 226 nM. The result for cyclo(I[dH]WR[dP][Tic]) reads 70.8 nM; that for cyclo(I[dR]IR[dP][Tic]), 34.3 nM. Regarding cyclo(I[dW]HR[dP][Tic]), the β-Arrestin EC50 was determined as 317 nM. The substance cyclo(R[dF]WR[dP][Tic]) showed a β-Arrestin EC50 of 12.8 nM. cyclo(R[dH]WR[dP][Tic]): the β-Arrestin EC50 stood at 144 nM. Substance cyclo(R[dW]HR[dP][Tic]) gave a β-Arrestin EC50 of 234 nM. With cyclo(W[dF]FR[dP][Tic]), the β-Arrestin EC50 worked out at 75.7 nM. With cyclo(W[dF]IR[dP][Tic]), the β-Arrestin EC50 is 148 nM. Substance cyclo(W[dF]RR[dP][Tic]) had a β-Arrestin EC50 of 178 nM. As to cyclo(W[dF]WH[dP][Tic]), the β-Arrestin EC50 amounted to 18.3 nM. The value for cyclo(W[dF]WK[dP][Tic]) was 16.5 nM; that for cyclo(W[dF]WR[dP][Oic]) was 0.8 nM; that for cyclo(W[dF]WR[dP][Tic]) was 4.8 nM.

cyclo(W[dF]WR[dTic]P): the β-Arrestin EC50 was determined as 83.6 nM. The value for cyclo(W[dF]WY[dP][Tic]) was 94.5 nM; that for cyclo(W[dF]W[Dab][dP][Tic]) was 12.6 nM. The result for cyclo(W[dF]W[Orn][dP][Tic]) reads 12.1 nM. cyclo(W[dF]YR[dP][Tic]): the β-Arrestin EC50 amounted to 326 nM. For cyclo(W[dF][2Nal]R[dP][Tic]), the β-Arrestin EC50 was 16.9 nM.

cyclo(W[dH]WR[dP][Tic]) had a β-Arrestin EC50 of 204 nM. The value for cyclo(W[dI]WR[dP][Tic]) was 63.4 nM. The result for cyclo(W[dOrn]WR[dP][Tic]) reads 111 nM.

For the substance cyclo(W[dR]HR[dP][Tic]), the β-Arrestin EC50 is 348 nM. In the case of cyclo(W[dR]HW[dP][Tic]), the β-Arrestin EC50 amounted to 217 nM. The result for cyclo(W[dR]WR[dP][Tic]) reads 128 nM; that for cyclo(W[dW]WR[dP][Tic]), 64.9 nM. The value for cyclo(Y[dF]WR[dP][Tic]) was 11.5 nM; that for cyclo([1Nal][dF]WR[dP][Tic]) was 61.6 nM. The value for cyclo([1Nal][dH]IR[dP][Tic]) was 347 nM; that for cyclo([1Nal][dR]WR[dP][Tic]) was 280 nM; that for cyclo([2Nal][dF]WR[dP][Tic]) was 8.9 nM. Regarding cyclo([Abu][dR]RW[dP][Tic]), the β-Arrestin EC50 came out at 97.5 nM.
